Assay [1] concerns the target T1, nucleolin (110-kDa protein of MDA-MB-435 cells, in cell extracts and inside cells) (human, UniProt P19338 2-710).
T1 construct: also called 110 kDa band; full-length nucleolin
Nature of the assay: affinity chromatography of MDA-MB-435 cell extract on peptide matrix, SDS gel, mass spectrometry. As to the method:
276:48588-48595 (2001). Briefly, 6×10⁸ MDA-MB-435 cells grown in RPMI 1640 medium with 10% fetal calf serum were pelleted and lysed in 60 ml of RIPA buffer (1% Triton X-100, 0.5% deoxycholic acid, 0.1% SDS, 10 mM Tris-HCl pH 7.6, 150 mM NaCl, and 1% Protease Inhibitor Cocktail for Mammalian Cells; SIGMA). […] Matrix beads were washed three times with IP-wash buffer (0.025% Triton X-100, 50 mM Tris-HCl pH 8.4, 150 mM NaCl, 1 mM CaCl₂, and 0.02% azide), two times with 25 mM Tris-HCl pH 8.4/250 mM NaCl, and eluted with 30 μl of SDS gel sample buffer. Affinity-purified proteins were reduced with 50 mM DTT before being separated on an 8-20% polyacrylamide gel and visualized by Colloidal Blue staining (Invitrogen; Carlsbad, Calif.). Bands that appeared in the peptide SEQ ID NO: 9 eluate, but not in control eluate, were cut out, digested with trypsin and analyzed by mass spectroscopy using matrix-assisted laser desorption ionization-time of flight analysis (Voyager DE-PRO, Applied Biosystems; Foster City, Calif.). Peptide samples were prepared using an alpha-cyano-4-hydroxycinnamic acid (HCCA)/nitrocellulose matrix.

In assay [2] the target is T2, cell surface nucleolin on intact tumor cells (MDA-MB-435, HL-60) (human, UniProt P19338 2-710).
T2 construct: Native nucleolin on human tumor cell lines; also called cell surface-expressed nucleolin
T2 sequence (P19338 other isoform, or with tags, fused parts or gaps limits assumed): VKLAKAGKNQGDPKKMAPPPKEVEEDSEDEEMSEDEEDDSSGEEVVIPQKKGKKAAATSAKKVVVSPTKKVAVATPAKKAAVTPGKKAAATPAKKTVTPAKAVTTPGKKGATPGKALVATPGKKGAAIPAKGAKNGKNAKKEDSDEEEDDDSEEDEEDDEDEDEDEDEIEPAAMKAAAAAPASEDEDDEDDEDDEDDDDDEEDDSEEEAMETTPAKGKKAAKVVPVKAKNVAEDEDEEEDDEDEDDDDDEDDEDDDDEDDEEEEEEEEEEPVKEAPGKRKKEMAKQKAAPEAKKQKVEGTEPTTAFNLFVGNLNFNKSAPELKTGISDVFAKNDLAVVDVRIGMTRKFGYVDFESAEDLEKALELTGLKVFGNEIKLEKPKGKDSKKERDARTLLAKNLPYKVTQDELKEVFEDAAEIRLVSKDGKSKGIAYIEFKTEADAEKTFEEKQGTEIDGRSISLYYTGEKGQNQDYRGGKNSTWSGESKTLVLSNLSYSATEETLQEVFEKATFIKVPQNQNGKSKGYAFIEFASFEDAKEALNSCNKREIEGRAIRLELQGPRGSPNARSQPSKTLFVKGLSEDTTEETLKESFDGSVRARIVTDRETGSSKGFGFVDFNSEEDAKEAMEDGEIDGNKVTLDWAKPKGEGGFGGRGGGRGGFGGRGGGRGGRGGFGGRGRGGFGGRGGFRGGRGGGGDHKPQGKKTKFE
Put plainly: phage binding to tumor cells, pfu count; the filing names nucleolin as the receptor only later. The source says:
Phage displaying a set of sequences corresponding to fragments of the amino-terminal portion of HMGN2 (SEQ ID NO: 5) were constructed to localize the region responsible for cell binding and in vivo homing. Fragments were designed to follow the exon/intron boundaries of the HMGN2 gene. Inserts encoding the indicated fragments were amplified from the full length HMGN2 phage clone by PCR, purified, digested and directionally cloned into the T7 415-1 and 10-3 vectors. Phage were packaged, amplified and sequenced according to the manufacturer's instructions. Phage preparations were then tested for binding to primary cells obtained from HL-60 xenograft tumors. After a 1 hour incubation at 4° C., cells were washed, and bound phage quantified. […] Furthermore, phage displaying the N-terminal portion of the active fragment SEQ ID NO: 9, which corresponds to exon 3 of the HMGN2 gene, were prepared. These phage expressing the sequence […] (SEQ ID NO: 11) bound to tumor cells 90-fold more than non-recombinant phage.
The phage binding assay was performed essentially as follows. Attachment of phage to cells was quantified by incubating 1×10⁸ pfu of phage displaying SEQ ID NO: 9 for 60 minutes with 1×10⁶ HL-60 cells at 4° C. in Tris-buffered saline with 1 mM Ca⁺² and 1 mM MgCl₂. […] Bound phage were quantified by plating and counting pfu.

T1 sequence (P19338 other isoform, or with tags, fused parts or gaps limits assumed): as above

B1: control peptide APKDKPAAVKERKKPAPKPRPQELRSKKAKPAPAS (SEQ ID NO:20) (peptide)
peptide: APKDKPAAVKERKKPAPKPRPQELRSKKAKPAPAS
notes: also called control matrix
For B1, the binding result in assay [1] is listed as “no binding”.

B2: phage expressing the HMGN2 exon 3 sequence PQRRSARLSA (SEQ ID NO: 11) (other)
chain: PQRRSARLSA
notes: not shown: T7 phage coat protein fusion partner
As to B2, the “fold binding over non-recombinant phage” value in assay [2] amounted to 90 fold.

For the origin of these results see patent publication US20040186056A1 (SANFORD BURNHAM MEDICAL RESEARCH INSTITUTE, published 2004).
